From the supplement of paper PMC10567573

Experiment: protein stability index of a GFP-peptide fusion (GPS, HEK-293T) (PSI 1-6); higher = more stable
Settings: c terminus: native
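Note: lentivirally expressed fusion library, cells FACS-sorted into six equal-sized GFP/DsRed ratio bins, PSI computed from sequencing read fractions per bin weighted by bin number.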

B1: TRPA1 addI (peptide)
chain: EQRNSRWNTVLRAVKAKTHHLEPI
protein stability index (parent: NP_015628.1): 4.42

B2: SNF8 addI (peptide)
chain: LPALFTDLYSQEITAEEAREALPI
protein stability index (parent: NP_009172.2): 3.3

B3: POLD2 addI (peptide)
chain: CQPISFSGFGAEDDDLGGLGLGPI
protein stability index (parent: NP_006221.1): 2.66

B4: PSMB5 addI (peptide)
chain: DGWIRVSSDNVADLHEKYSGSTPI
protein stability index (parent: NP_002788.1): 4.5
